For 1 molecule, stoichiometry N results are on record in publication PMC10486284.

The target in the assay is T1, Human TIGIT extracellular domain, C-terminal hexahistidine and AviTag (human), Q495A1.
T1 chain: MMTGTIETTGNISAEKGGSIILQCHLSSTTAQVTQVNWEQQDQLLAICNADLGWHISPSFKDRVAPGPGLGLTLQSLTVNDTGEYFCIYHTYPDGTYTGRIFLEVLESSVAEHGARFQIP
The assay is described as follows: SEC-MALS. As to conditions: remark: other sources report otherwise.

B1: Human CD112 extracellular domain, C-terminal hexahistidine, Q92692 32-360 (ligand)
chain: QDVRVQVLPEVRGQLGGTVELPCHLLPPVPGLYISLVTWQRPDAPANHQNVAAFHPKMGPSFPSPKPGSERLSFVSAKQSTGQDTEAELQDATLALHGLTVEDEGNYTCEFATFPKGSVRGMTWLRVIAKPKNQAEAQKVTFSQDPTTVALCISKEGRPPARISWLSSLDWEAKETQVSGTLAGTVTVTSRFTLVPSGRADGVTVTCKVEHESFEEPALIPVTLSVRYPPEVSISGYDDNWYLGRTDATLSCDVRSNPEPTGYDWSTTSGTFPTSAVAQGSQLVIHAVDSLFNTTFVCTVTNAVGMGRAEQVIFVRETPNTAGAGATGG
modifications: here or on the partner: biotin on the BirA biotinylation tag (BLI and ProteOn SPR)
Molecule B1 returned a stoichiometry N of 1.
